From the nanobody polyreactivity screen of Harvey et al. (2022) come the findings set out here.

The nature of the series: yeast display, Sf9 membrane polyspecificity reagent, FACS + sequencing; frameworks hold sequencing errors. The procedure, abridged:
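A nanobody's polyreactivity label depends on the gate it was sorted from. Yeast display cells were stained with 10% biotinylated, detergent-solubilized Sf9 membrane reagent for 1 hour at 4 °C, enriched on streptavidin microbeads and sorted by FACS. The low and high (top ~1%) gates were set on anti-HA fluorescence for expression and streptavidin fluorescence for reagent binding.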
Take “QVQLVESGGGLVQAGGSLRLSCAASGSIFDPYAMGWYRQAPGKERELVAAISFRGGGTYYADSVKGRFTISRDNAKNTVYLQMNSLKPEDTAVYYCNVDYYWISGYVGSYIEFDYWGQGTQVTVSS”: the “polyreactivity (PSR sort gate)” value is given as “low polyreactivity”.
Consider “QVQLVESGGGLVQAGGSLRLSCAASGRIFSHYAMGWYRQAPGKERELVAAITSDGSTNYADSVKGRFTISRDNAKNTVYLQMNSLKPEHTAVYYCAKYVHIPYYYYLFGSYDYWGQGTQLTVSS”, for which the “polyreactivity (PSR sort gate)” value is “low polyreactivity”.
As to “QVQLVESGGGLVQAGGSLRLSCAASGRTFYLNTMGWYRQAPGKERELVAGITSSGTRTYYADSVKGRFTISRDNAKNTVYLQMNSLKPEDTAVYYSAKTWGGQIRPRYRYGSGYDYWGQGTQVTVSS”, the “polyreactivity (PSR sort gate)” value was “high polyreactivity”.
With “QVQLVESGGGLVQAGGSLRLSCAASGRIFTGNALGWYRQAPGKESELVAAITRNGGSTYYADSVKGRFTLSRDNAKNTVYVQMNSLKPEDTAVYYCAAKLSPVYYRRYDYWGQGTQVTVSS”, the “polyreactivity (PSR sort gate)” value is “high polyreactivity”.
Under “QVQLVESGGGLVQAGGSLRLSCAASGFTFGDYAMGWYRQAPRKERELVAAISKRGGRTFYADSVKGRFTISRDNAKNTVYLQMNSLKPEDTAVYYCAKAGSFDYDYWGQGTQVTVSS” stands “high polyreactivity”; under “QVQLVESGGGLVQAGGSLRLSCAASGLTFDGYAMGWYRQAPGKERELVARITRNGGITYYADSVKGRFTISRDNAKNTVYLQMNSLKPEDTAVYYCAAGQRLWKYYGVIGWTVTNYYYWGQGTQVTVSS”, “high polyreactivity”.
In the case of “QVQLVESGGGLVQAGGSLRLSCAASGITFIRNGMGWYRQAPGKERELVAAISDTGARTYYADSVKGRFTISRDNAKNTVYLQMNSLKPEDTAVYYCAAEVRTRYLYSFRWYDYWGQGTQVTVSS”, the “polyreactivity (PSR sort gate)” value is “low polyreactivity”.
Under “QVQLVESGGGLVQAGGSLLLSCAASGFIFVSYAMGWYRQAPGKERELVAAIDRIGGITYYADSVKGRFTISRDNAKNTVYLQMNSLKREDTAVYYCAAAARFATVRVGREYYWGQGTQVTVSS” stands “low polyreactivity”.
Regarding “QVQLVESGGGLVQAGGSLRLSCAASGNIFRRYAMGWYRQAPGKERELVAAISRGGTRTYYADSVKGRFTISRDNAKNTVYLQMNSLKPEDTAVYYCNAEVKTNYRIADYDYWGQGTQVTVSS”, the “polyreactivity (PSR sort gate)” value is “high polyreactivity”.
In the case of “QVQLVESGGGLVQAGGSLRLSCAASGSIFYRNAMGWYRQAPGKERELVAAISSDGSTNYADSVKGRFTISRDNAKNTVYLQMNSLKPEDTAVYYCNVPYYLPSYLSGYDYWGQGTQVTVSS”, the “polyreactivity (PSR sort gate)” value was “low polyreactivity”.
For the sequence “QVQLVESGGGLVQAGGSLRLSCAASGNTFLWYAMGWYRQAPGKERELGAAISRGGGSTYYADSVKGRFTISRDNAKNTVYLQMNSLKPEDTAVYYCAARTYYSARSIHYREFEYWGQGTQVTVSS”, the “polyreactivity (PSR sort gate)” value is given as “high polyreactivity”.
For the sequence “QVQLVESGGGLVQAGGSLRLSCAASGSIFFVYAMGWYRQAPGKERELVAAIDWDGGSTYYADSVKGRFTISRDNAKNTVYLQMNSLKPEDTAVYYCAADAWDLYSDGQEYNYWGQGTQVTVSS”, the “polyreactivity (PSR sort gate)” value is on record as “high polyreactivity”.
As for “QVQLVESGGCLVQAGGSLRLSCSSSGSTFEYNAIGWYRQAPGKERELVAAIRSSSSTHYADSVKGRFTISRDNAKNTVYLQMNSLKPEDTAVYYFNTDAHYYDHWGQGTQVTVSS”, the “polyreactivity (PSR sort gate)” value is recorded as “low polyreactivity”.
Consider “QVQRVETGGGLVQAAGSLRLSCAASGRTFRNYAMGWYRQAPGKERELVAAIRSGVRTYYADSVKGRFTISRDNAKNTVYLQMNSVKPEDTAVYYCAVATGLLYKSHGYCGQGTQVTVSS”, for which the “polyreactivity (PSR sort gate)” value is “low polyreactivity”.
“QVQLVESGGGLVQAGGSLRLSCAASGRTFALYAMGWYRQAPGKERELVAAITFSGGSTSYADSVKGRFTISRDNAKYTVYLQMNSLKPEDTAVYYCAAYWYSLYYLYPYDYWGQGTQVTVSS”: the “polyreactivity (PSR sort gate)” value was “low polyreactivity”.
For “QVQLVESGGGLVQAGGSLRLSCAASGRTISWYAMGRYRQAPGKERELVAAITYSGGSTYYAVSVKGRFTISRDNAKNTVYLQMNSLKPEDTAVYYCAADGRVREYDYWGQGTQVTVSS” the value was “high polyreactivity”; for “QVQLVESGGGLVKAGGSLRLSSDASGSISKSYAMGWYRQAPGKERELVAVITSGGNTYYADSVKGRFTISRDNAKNTVYLQMNSLKPEDTAVYYCAAKSGRGRTMDYWGQGTQVTVSS”, “high polyreactivity”; for “QVQLVESGGGVVQAGGSLRLRCAASGSTVLGYVMGWYRQAPGKERELVAAITRSGGRTYYADSVQGRFTISRDNAKNTVSLQMNSLKPEETAVYYCAALRGPSFHGYGYWGQGTQVTVSS”, “high polyreactivity”.
In the case of “QVQLVESGGGLVQAGGTLRLSCAASGSTFYLYAMGWYRQAPGNERELVAAISSAGGSTYYADSVKGRFTISRVNAKNTVYLQMNSLKPEDTAVYYCTRDIRRRGNYWGQGTQVTVSS”, the “polyreactivity (PSR sort gate)” value is “high polyreactivity”.
Take “QVQLVESGGGLVQAGGSLRLSCAASGFTFARYTMGWSRQAPGKEREFVAAISWSGGRTYYADSVKGRFTISRDNAKNTVYLQMNSLKPEDTAVYYCAAEYWGVYRGFVSSFDYWGQGTQVTVSS”: the “polyreactivity (PSR sort gate)” value is “high polyreactivity”.
For “QVQLVESGGRLVQAGGSLPLSCAASGFIFRYYAMGWYRQAPGKERELVAAIDYSGGSTNYADSVKGRFTISRDNAKNTVYLQMNSLKPEDTAVYYCNAEYTWHRGYDYWGQGTQVTVSS” the value was “low polyreactivity”; for “QVQLVESGGGLVQAGGSLRLSCAASGNTFTFYAMGWYRQAPGTERELVASITGRGGSTYYADSVKGRFTISRDNAKNTVYLQMNSLKPEDTAVYYCNADYNSFRYRPPTTRDYWGQGTQVTVSS”, “low polyreactivity”.
On to “QVQLVESDGGLDQAGGSLRLSCPASGIIFGYYVMGRYRQAPGKERELVASITSGGSTNYADSVKGRFTISRDNAKNTVYLQMNSLKPEDTAVYYCAAEERTDTIPGWRYPHDYWGQGTQVTVSS”, for which the “polyreactivity (PSR sort gate)” value is “low polyreactivity”.
With “QVQLVESGGGLVQAGGSLRLSCAASGSIIARYAMGWYRQAPGKETELVAAINSGTSTNYADSVKGRFTISRDNAKNTVYFQMHCLKPEDTEVYYCNTQWYVDNDTYTQTDYDYWGQGTQVTVSS”, the “polyreactivity (PSR sort gate)” value was “low polyreactivity”.
For “QVQLVESGGGLVQAGGSLRLSCAASGSTFVQNAMGWYRQAPGKERELVAAISKSGGRTYYADSVKGRFTISRDNEKNTVYLQINSLNAEDTAVYYCARPYSRAYDYWGQGTQVTVSS” the value was “high polyreactivity”.
On to “QVQLVESGGGLVQAGGSLRLSCAASGSIFIPNAMGWYRQAPGKERELVAAISLSDTTTYYADSVKGRFTISRDNAKNTVYLQMNSLKPEDTAVYYCNKLTYGRVWDHHYDYWGQGTQVTVSS”, for which the “polyreactivity (PSR sort gate)” value is given as “low polyreactivity”.
As to “QVQLVESGGGLGQAGGSLRLSSAASGSIFWFYAMGWYRQAPGKERELVAAITSSGGTDYADSVKGRFSISRDNAKNTVYLQMNSLKPEDSAVYYCAADRIGGPGSYLYDYWGQGTQVTVSS”, the “polyreactivity (PSR sort gate)” value was “low polyreactivity”.
For “QVQIVESGGGLVQAGGSLRLSCAASGRNFGANAMGWYRQAPGKERELVASISSSGSRTYYAVSVKGRFTISRDNAKNTVSLQMNSLKPEDSAVYYCAARYWIYRSEYDYWGQGTQVTVSS”, the “polyreactivity (PSR sort gate)” value was “high polyreactivity”.
Take “QVQLVESGGGLVQAGGSLRLSCAASGSTFTTYAMGWYRQSPGKERELVAVITDSGGTYYADSVKGRFTISRDNAKNTVYLQMNSLKPEDTAVYYCNRVFPPTDYEFDSWGQGTQVTVSS”: the “polyreactivity (PSR sort gate)” value is recorded as “low polyreactivity”.
In the case of “QVQLVESGGGLVQAGGSLRLSCAASGSTFGKYAMGWYRQAPGKEREFVAAITWSGGRTYYADSVKGRFTISRDNAKNTVYLQMNSLKPEDTAVDYCAALWAYYSRGYYWGQGTQVTVSW”, the “polyreactivity (PSR sort gate)” value is on record as “high polyreactivity”.
Under “QVQLVESGGGLVQAGGSLRLSCAASGYTFDGYAMGRYRQAPGKERELVAAINSGGGTYYADSVKGRFTISRDNAKNTVYLQMNSLKPEDTAVYYCAKYTYDYWGQGTQVTVSS” stands “low polyreactivity”; under “QVQLVESGGGLVQAGGTLRLSCAASGSIFAVNAMGWYRQAPGKERELVAAISKRGGSTYYADSVKGRFTISRDNAKNTVYLQMNSLKPEDTAVYYCAARILVTYHRDYYYWGLGTQVTVSS”, “high polyreactivity”; under “QVQLVESGGGLVQAGGSLRLSCAASGRTFSSYTMGWYRQAPGKERELVAAISWRGGSTYYADSVKGRFTISRDNAKYTVYLQMTSLKPEDTAVYYCNADVYSTYYNYNYWGQGTQVTVSS”, “high polyreactivity”.
As for “QVQLVESGGGLVQAGGSLRLSCAASGFIFFLNAMGWYRQAPGKERELVAAISSSGGRTYYADSVKGRFTISRDNAKNTVYLQMNSLKPEDTAVYYCNAVTLYRSRTDGYWGQGTQVTVSS”, the “polyreactivity (PSR sort gate)” value was “high polyreactivity”.
“QVQLVESGGGLVQAGGSLRLSCAASGRIFRGYAMGWSRQAPGKERELVAAITSRGGSTYADSVKGRFTISRDNAKNTVYLQMNSLKPEDTAVYYCNAGYRADSSKLVFRGYPRYDYWGQGTQVTVSS”: the “polyreactivity (PSR sort gate)” value is recorded as “low polyreactivity”.
Turning to “QVQIVESGGGLVQAGGSLRLSCAASGSTFGYYTMGWYRQAPGKERELVAAISWSGGSTYYADSVKGRFTISRDNAKNTVYLQKNSLKPEDTAVYYCAALGYTYKYYSYYWGQGTQVTVSS”, the “polyreactivity (PSR sort gate)” value was “high polyreactivity”.
Take “QVQLVESGGGLVQAGGSLRLSCAASGSIFGPYVMGWYRQAPGKEREFVAAIRGSGGSTYYADSVKGRFTISRDNAKNTVYLQMNSLKPEDTAVYYCNARLKYTLYYYWGQGTQVTVSS”: the “polyreactivity (PSR sort gate)” value is on record as “high polyreactivity”.
For “EEELVDSGGGLVQAGGSLRLSCSAYGSTFRDYAMGWYRQAPGKERELVAAITSGGTTDYADSVKGRFPISRDNAKNTVYLQMNSLKPEDTAVYYCNKDGVVAGYQYDYWGQGTQVTVSS”, the “polyreactivity (PSR sort gate)” value is given as “low polyreactivity”.
On to “QVQLVESGGGLVQAGGSLRLSCAASGRIFGINAMGWYRQAPGKERELVAAINWSGGSTYYADSVKGRFTISRDNAKNTVYLQMNSLKPEDTAVYYCAAQKYKRVGYWGQGTQVTVSS”, for which the “polyreactivity (PSR sort gate)” value is “high polyreactivity”.
As to “QVQLVESGGGLVQAGGSLRLSCAASGFNFAFYDMGWYRQAPGKERELVAAISWGGSTYYADSVKGRFTISRDNAKNTVYLQMNRLKPEDTAVYYCAARLSRSYRYGYWGQGTQVTVSS”, the “polyreactivity (PSR sort gate)” value is “high polyreactivity”.
In the case of “QVQLVESGGGLVQAGGSLRLSCAASGSILLYYAMGGSRPAPGKERQLVAAITCSGGSTYYADSVKGRFTISRDNAKNTDYLQMNSQKPEDTAVYYCNAVTDRAGSDYDSWGQGTQVTVSS”, the “polyreactivity (PSR sort gate)” value was “low polyreactivity”.
